Experimental findings from PMC9910466 (Proceedings of the National Academy of Sciences of the …, 2022) are described below.

Assay [1] has as its target Ufd1^ΔSIM/Npl4 dimer, biotinylated (S. cerevisiae) (UniProt P53044). The experiment in a line: BLI; biotinylated Ufd1/Npl4 dimer (WT Ufd1 or Ufd1^ΔSIM) immobilised on streptavidin biosensors, serial dilution of substrate; 30 °C; PBS, 0.02% Tween-20, 0.1% BSA, 0.1 mM TCEP; 2:1 heterogeneous ligand fit.
For the next assay, the target named is T1, Npl4 (S. cerevisiae) (S. cerevisiae, UniProt P33755 1-580).
T1 construct: Npl4, S. cerevisiae, codon-optimized gene; source: E. coli BL21-CodonPlus (DE3)-RIL, purified with Ufd1 (Ni-NTA, TEV protease, SEC); not shown: His tag (from the Ni-NTA purification)
T1 sequence: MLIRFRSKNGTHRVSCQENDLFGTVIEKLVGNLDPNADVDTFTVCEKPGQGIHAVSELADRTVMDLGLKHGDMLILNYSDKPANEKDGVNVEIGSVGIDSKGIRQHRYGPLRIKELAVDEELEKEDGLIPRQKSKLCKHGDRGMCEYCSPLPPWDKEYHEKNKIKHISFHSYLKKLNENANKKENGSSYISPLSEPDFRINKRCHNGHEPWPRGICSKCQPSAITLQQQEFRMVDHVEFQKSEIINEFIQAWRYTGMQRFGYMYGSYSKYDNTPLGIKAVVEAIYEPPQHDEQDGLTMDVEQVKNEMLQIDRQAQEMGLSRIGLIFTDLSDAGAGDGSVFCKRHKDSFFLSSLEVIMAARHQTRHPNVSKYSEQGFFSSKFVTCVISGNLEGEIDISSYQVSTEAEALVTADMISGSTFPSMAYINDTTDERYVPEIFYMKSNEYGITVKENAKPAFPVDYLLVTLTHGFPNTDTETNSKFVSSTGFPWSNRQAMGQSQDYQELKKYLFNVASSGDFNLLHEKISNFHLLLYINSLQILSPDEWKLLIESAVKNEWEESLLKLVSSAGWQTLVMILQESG
Briefly: cryo-EM structure; 2 μM Ufd1/Npl4, 2 μM Cdc48, 2.5 μM 1S1U^H-mEOS, on ice with 1 mM ATP in 20 mM HEPES pH 8.0, 150 mM NaCl, 0.1 mM TCEP, 5 mM MgCl2; single-particle. Particulars: both partners purified.

Turning to “1S1U-mEOS substrate without polyubiquitin chain (one SUMO and one ubiquitin fused end to end with the N-terminus of mEOS) (from UniProt Q12306 1-101; P0CG63 1-76)”, the fold binding defect against WT Ufd1/Npl4 in assay [1] came to 100 fold.

B1: Ufd1 (S. cerevisiae) (natural protein)
chain: MFSGFSSFGGGNGFVNMPQTFEEFFRCYPIAMMNDRIRKDDANFGGKIFLPPSALSKLSMLNIRYPMLFKLTANETGRVTHGGVLEFIAEEGRVYLPQWMMETLGIQPGSLLQISSTDVPLGQFVKLEPQSVDFLDISDPKAVLENVLRNFSTLTVDDVIEISYNGKTFKIKILEVKPESSSKSICVIETDLVTDFAPPVGYVEPDYKALKAQQDKEKKNSFGKGQVLDPSVLGQGSMSTRIDYAGIANSSRNKLSKFVGQGQNISGKAPKAEPKQDIKDMKITFDGEPAKLDLPEGQLFFGFPMVLPKEDEESAAGSKSSEQNFQGQGISLRKSNKRKTKSDHDSSKSKAPKSPEVIEID
notes: Ufd1, S. cerevisiae, codon-optimized gene; residues 228 to 256 and 281 to 311 resolved in the maps; source: E. coli BL21-CodonPlus (DE3)-RIL, purified with Npl4 (Ni-NTA, TEV protease, SEC); not shown: His tag (from the Ni-NTA purification)
Consider B1, for which, in the assay with Npl4 (S. cerevisiae), the binding result was “binds”.
